Numbered stars: 1 amine (or outer) side, 2 acyl side, 3 side chain; on linkers, the order of the positions; unused ones are H or OH. Bridge positions count the residues as written; N and C are the ends. Square brackets hold non-standard residues; d marks the D form. Primed or numbered codes have the meaning given here. Side chains are listed from the residue outwards. * marks the point of attachment. tMeBn(DOTA-PP) = 1,3,5-trimethylbenzylidene, two thioethers to Cys, third CH2 bound to one N of piperazine whose other N bears DOTA, O=C(O)CN1CCN(CC(=O)O)CCN(CC(=O)N2CCN(Cc3cc(C[*:1])cc(C[*:2])c3)CC2)CCN(CC(=O)O)CC1; Ttds″ = 1,13-diamino-4,7,10-trioxatridecan-succinamic acid spacer, O=C(CCC(=O)[*:2])NCCCOCCOCCOCCCN[*:1]; Ttds(6) = 1,13-Diamino-4,7,10-trioxatridecan-succinamic acid, O=C(CCC(=O)[*:2])NCCCOCCOCCOCCCN[*:1]; 3MeBn″ = 3-methylbenzylidene (meta-xylylene bridge from alpha,alpha'-dibromo-m-xylene); 3MeBn = 3-Methylbenzylidene (m-xylylene thioether bridge from α,α′-dibromo-m-xylene); N4Ac = 6-Carboxy-1,4,8,11-tetraazaundecane, an N4-chelator, NCCNCC(CNCCN)C(=O)*; APAc = 2-(4-(Amino)piperidin-1-yl)acetic acid, O=C(CN1CCC(N[*:1])CC1)[*:2]; 3MeBn(3) = 3-methylbenzylidene (m-xylylene), from α,α′-dibromo-m-xylene; Biotin = O=C1N[C@H]2[C@H](CS[C@H]2CCCCC(=O)*)N1; Bip = N[C@@H](Cc1ccc(-c2ccccc2)cc1)C(=O)O; γGlu = O=C(O)[C@H](CCC(=O)[*:2])N[*:1]; Met(O2) = CS(=O)(=O)CC[C@H](N)C(=O)O; mXylylene = c1cc(C[*:1])cc(C[*:2])c1; NMeE = CN[C@@H](CCC(=O)O)C(=O)O; DOTA′ = not defined here; Nle = CCCC[C@H](N)C(=O)O; Nphe = O=C(O)CNCc1ccccc1; Apr = not defined here; Hexanoyl = CCCCCC(=O)*; Nleu = CC(C)CNCC(=O)O; Nlys = NCCCCNCC(=O)O; Mpa = O=C(O)CCS
B1: Hex-[Cys(3MeBn)-Pro-Pro-Thr-Ala-Phe-Cys]-NH2 (peptide)
peptide: Hexanoyl-CPPTAFC-NH2
modifications: linker 1-7 via mXylylene
SMILES: CCCCCC(=O)N[C@H]1CSCc2cccc(c2)CSC[C@@H](C(N)=O)NC(=O)[C@H](Cc2ccccc2)NC(=O)[C@H](C)NC(=O)[C@H]([C@@H](C)O)NC(=O)[C@@H]2CCCN2C(=O)[C@@H]2CCCN2C1=O
B2: Hex-[Cys(3MeBn)-Pro-Pro-Thr-Glu-Bip-Cys]-NH2 (peptide)
peptide: Hexanoyl-CPPTE[Bip]C-NH2
modifications: linker 1-7 via mXylylene
SMILES: CCCCCC(=O)N[C@H]1CSCc2cccc(c2)CSC[C@@H](C(N)=O)NC(=O)[C@H](Cc2ccc(-c3ccccc3)cc2)NC(=O)[C@H](CCC(=O)O)NC(=O)[C@H]([C@@H](C)O)NC(=O)[C@@H]2CCCN2C(=O)[C@@H]2CCCN2C1=O
B3: N4Ac-gGlu-Nle-[Cys-(3MeBn)-Pro-Pro-Thr-Glu-Phe-Cys]-OH (peptide)
peptide: N4Ac-[γGlu][Nle]CPPTEFC-OH
modifications: linker 3-9 via mXylylene
SMILES: CCCC[C@H](NC(=O)CC[C@H](NC(=O)C(CNCCN)CNCCN)C(=O)O)C(=O)N[C@H]1CSCc2cccc(c2)CSC[C@@H](C(=O)O)NC(=O)[C@H](Cc2ccccc2)NC(=O)[C@H](CCC(=O)O)NC(=O)[C@H]([C@@H](C)O)NC(=O)[C@@H]2CCCN2C(=O)[C@@H]2CCCN2C1=O
B4: N4Ac-Ttds-Glu(AGLU′)-Nle-[Cys-(3MeBn)-Pro-Pro-Thr-Glu-Phe-Cys]-OH (peptide)
peptide: N4Ac-[Ttds(6)]E[Nle]CPPTEFC-OH
modifications: linker 4-10 via 3MeBn; not fully specified (residue 2); printed as N4Ac-Ttds-Glu(AGLU′)-Nle-[Cys-(3MeBn)-Pro-Pro-Thr-Glu-Phe-Cys]-OH
B5: Hex-[Cys(3MeBn)-Pro-Pro-Thr-Glu-Phe-Cys]-NH2 (peptide)
peptide: Hexanoyl-CPPTEFC-NH2
modifications: linker 1-7 via 3MeBn″
B6: Hex-[Cys(3MeBn)-Nphe-Pro-Thr-Gln-Phe-Cys]-NH2 (peptide)
peptide: Hexanoyl-C[Nphe]PTQFC-NH2
modifications: linker 1-7 via mXylylene
SMILES: CCCCCC(=O)N[C@H]1CSCc2cccc(c2)CSC[C@@H](C(N)=O)NC(=O)[C@H](Cc2ccccc2)NC(=O)[C@H](CCC(N)=O)NC(=O)[C@H]([C@@H](C)O)NC(=O)[C@@H]2CCCN2C(=O)CN(Cc2ccccc2)C1=O
B7: Hex-[Cys(tMeBn(DOTA-PP))-Thr-Gln-Pro-Phe-Pro-Cys]-Asp-NH2 (peptide)
peptide: Hexanoyl-CTQPFPCD-NH2
modifications: linker 1-7 via tMeBn(DOTA-PP)
SMILES: CCCCCC(=O)N[C@H]1CSCc2cc(cc(CN3CCN(C(=O)CN4CCN(CC(=O)O)CCN(CC(=O)O)CCN(CC(=O)O)CC4)CC3)c2)CSC[C@@H](C(=O)N[C@@H](CC(=O)O)C(N)=O)NC(=O)[C@@H]2CCCN2C(=O)[C@H](Cc2ccccc2)NC(=O)[C@@H]2CCCN2C(=O)[C@H](CCC(N)=O)NC(=O)[C@H]([C@@H](C)O)NC1=O
B8: Hex-[Cys(3MeBn)-Ala-Pro-Thr-Glu-Phe-Cys]-NH2 (peptide)
peptide: Hexanoyl-CAPTEFC-NH2
modifications: linker 1-7 via mXylylene
SMILES: CCCCCC(=O)N[C@H]1CSCc2cccc(c2)CSC[C@@H](C(N)=O)NC(=O)[C@H](Cc2ccccc2)NC(=O)[C@H](CCC(=O)O)NC(=O)[C@H]([C@@H](C)O)NC(=O)[C@@H]2CCCN2C(=O)[C@H](C)NC1=O
B9: Hex-[Cys(3MeBn)-Pro-Pro-Ala-Glu-Phe-Cys]-NH2 (peptide)
peptide: Hexanoyl-CPPAEFC-NH2
modifications: linker 1-7 via mXylylene
SMILES: CCCCCC(=O)N[C@H]1CSCc2cccc(c2)CSC[C@@H](C(N)=O)NC(=O)[C@H](Cc2ccccc2)NC(=O)[C@H](CCC(=O)O)NC(=O)[C@H](C)NC(=O)[C@@H]2CCCN2C(=O)[C@@H]2CCCN2C1=O
B10: Hex-[Cys(3MeBn)-Pro-Pro-Thr-Glu-Ala-Cys]-NH2 (peptide)
peptide: Hexanoyl-CPPTEAC-NH2
modifications: linker 1-7 via mXylylene
SMILES: CCCCCC(=O)N[C@H]1CSCc2cccc(c2)CSC[C@@H](C(N)=O)NC(=O)[C@H](C)NC(=O)[C@H](CCC(=O)O)NC(=O)[C@H]([C@@H](C)O)NC(=O)[C@@H]2CCCN2C(=O)[C@@H]2CCCN2C1=O
B11: [3MeBn-Spa-Pro-Pro-Thr-Gln-Phe-Cys]-Asp-NH2 (peptide)
peptide: [Mpa]PPTQFCD-NH2
modifications: linker 1-7 via mXylylene
SMILES: C[C@@H](O)[C@@H]1NC(=O)[C@@H]2CCCN2C(=O)[C@@H]2CCCN2C(=O)CCSCc2cccc(c2)CSC[C@@H](C(=O)N[C@@H](CC(=O)O)C(N)=O)NC(=O)[C@H](Cc2ccccc2)NC(=O)[C@H](CCC(N)=O)NC1=O
B12: Hex-[Cys(3MeBn)-Pro-Pro-Thr-Glu-Nphe-Cys]-NH2 (peptide)
peptide: Hexanoyl-CPPTE[Nphe]C-NH2
modifications: linker 1-7 via mXylylene
SMILES: CCCCCC(=O)N[C@H]1CSCc2cccc(c2)CSC[C@@H](C(N)=O)NC(=O)CN(Cc2ccccc2)C(=O)[C@H](CCC(=O)O)NC(=O)[C@H]([C@@H](C)O)NC(=O)[C@@H]2CCCN2C(=O)[C@@H]2CCCN2C1=O
B13: Hex-[Cys(tMeBn(DOTA-PP))-Pro-Thr-Pro-Phe-Gln-Cys]-Asp-NH2 (peptide)
peptide: Hexanoyl-CPTPFQCD-NH2
modifications: linker 1-7 via tMeBn(DOTA-PP)
SMILES: CCCCCC(=O)N[C@H]1CSCc2cc(cc(CN3CCN(C(=O)CN4CCN(CC(=O)O)CCN(CC(=O)O)CCN(CC(=O)O)CC4)CC3)c2)CSC[C@@H](C(=O)N[C@@H](CC(=O)O)C(N)=O)NC(=O)[C@H](CCC(N)=O)NC(=O)[C@H](Cc2ccccc2)NC(=O)[C@@H]2CCCN2C(=O)[C@H]([C@@H](C)O)NC(=O)[C@@H]2CCCN2C1=O
B14: Hex-[Cys(3MeBn)-Nleu-Pro-Thr-Gln-Phe-Cys]-NH2 (peptide)
peptide: Hexanoyl-C[Nleu]PTQFC-NH2
modifications: linker 1-7 via mXylylene
SMILES: CCCCCC(=O)N[C@H]1CSCc2cccc(c2)CSC[C@@H](C(N)=O)NC(=O)[C@H](Cc2ccccc2)NC(=O)[C@H](CCC(N)=O)NC(=O)[C@H]([C@@H](C)O)NC(=O)[C@@H]2CCCN2C(=O)CN(CC(C)C)C1=O
B15: Hex-[Cys(3MeBn)-Nlys-Pro-Thr-Gln-Phe-Cys]-NH2 (peptide)
peptide: Hexanoyl-C[Nlys]PTQFC-NH2
modifications: linker 1-7 via mXylylene
SMILES: CCCCCC(=O)N[C@H]1CSCc2cccc(c2)CSC[C@@H](C(N)=O)NC(=O)[C@H](Cc2ccccc2)NC(=O)[C@H](CCC(N)=O)NC(=O)[C@H]([C@@H](C)O)NC(=O)[C@@H]2CCCN2C(=O)CN(CCCCN)C1=O
B16: H-Met-[Cys(3MeBn)-Pro-Pro-Thr-Glu-Phe-Cys]-Asp-His-Phe-Arg-Asp-Ttds-Lys(Bio)-NH2 (peptide)
peptide: H-MCPPTEFCDHFRD[Ttds″]K(Biotin)-NH2
modifications: linker 2-8 via mXylylene
SMILES: CSCC[C@H](N)C(=O)N[C@H]1CSCc2cccc(c2)CSC[C@@H](C(=O)N[C@@H](CC(=O)O)C(=O)N[C@@H](Cc2c[nH]cn2)C(=O)N[C@@H](Cc2ccccc2)C(=O)N[C@@H](CCCNC(=N)N)C(=O)N[C@@H](CC(=O)O)C(=O)NCCCOCCOCCOCCCNC(=O)CCC(=O)N[C@@H](CCCCNC(=O)CCCC[C@@H]2SC[C@@H]3NC(=O)N[C@@H]32)C(N)=O)NC(=O)[C@H](Cc2ccccc2)NC(=O)[C@H](CCC(=O)O)NC(=O)[C@H]([C@@H](C)O)NC(=O)[C@@H]2CCCN2C(=O)[C@@H]2CCCN2C1=O
B17: Hex-[Cys(tMeBn(DOTA-PP))-Phe-Gln-Thr-Pro-Pro-Cys]-Asp-NH2 (peptide)
peptide: Hexanoyl-CFQTPPCD-NH2
modifications: linker 1-7 via tMeBn(DOTA-PP)
SMILES: CCCCCC(=O)N[C@H]1CSCc2cc(cc(CN3CCN(C(=O)CN4CCN(CC(=O)O)CCN(CC(=O)O)CCN(CC(=O)O)CC4)CC3)c2)CSC[C@@H](C(=O)N[C@@H](CC(=O)O)C(N)=O)NC(=O)[C@@H]2CCCN2C(=O)[C@@H]2CCCN2C(=O)[C@H]([C@@H](C)O)NC(=O)[C@H](CCC(N)=O)NC(=O)[C@H](Cc2ccccc2)NC1=O
B18: Hex-[Cys(3MeBn)-Pro-Pro-Thr-Glu(NH-Apr-DOTA′)-Phe-Cys]-Asp-NH2 (peptide)
peptide: Hexanoyl-CPPTE([Apr-DOTA′])FCD-NH2
modifications: linker 1-7 via mXylylene; reading uncertain; also: printed as Hex-[Cys(3MeBn)-Pro-Pro-Thr-Glu(NH-Apr-DOTA′)-Phe-Cys]-Asp-NH2
B19: Hex-[Cys(3MeBn)-Pro-Pro-Thr-Nme-Phe-Cys]-NH2 (peptide)
peptide: Hexanoyl-CPPT[NMeE]FC-NH2
modifications: linker 1-7 via mXylylene
SMILES: CCCCCC(=O)N[C@H]1CSCc2cccc(c2)CSC[C@@H](C(N)=O)NC(=O)[C@H](Cc2ccccc2)NC(=O)[C@H](CCC(=O)O)N(C)C(=O)[C@H]([C@@H](C)O)NC(=O)[C@@H]2CCCN2C(=O)[C@@H]2CCCN2C1=O
B20: Hex-[Cys(3MeBn)-Pro-Pro-Thr-Moo-Phe-Cys]-NH2 (peptide)
peptide: Hexanoyl-CPPT[Met(O2)]FC-NH2
modifications: linker 1-7 via mXylylene
SMILES: CCCCCC(=O)N[C@H]1CSCc2cccc(c2)CSC[C@@H](C(N)=O)NC(=O)[C@H](Cc2ccccc2)NC(=O)[C@H](CCS(C)(=O)=O)NC(=O)[C@H]([C@@H](C)O)NC(=O)[C@@H]2CCCN2C(=O)[C@@H]2CCCN2C1=O
B21: N4Ac-APAc-Nle-[Cys-(3MeBn)-Pro-Pro-Thr-Glu-Phe-Cys]-OH (peptide)
peptide: N4Ac-[APAc][Nle]CPPTEFC-OH
modifications: linker 3-9 via 3MeBn(3)

Experiments:
[1] = molecular target: fibroblast activation protein (FAP) on FAP-expressing human WI-38 fibroblasts (human) (UniProt Q12884); assay: competitive FACS, WI-38 cells, vs Cy5 tracer m3; D = pIC50 <=6.0
[2] = molecular target: human fibroblast activation protein (FAP) on WI-38 fibroblasts (human) (UniProt Q12884); assay: competitive FACS, WI-38 cells, Cy5-labeled peptide as competitor
[3] = molecular target: Recombinant human DPP4 (R&D systems, #9168-SE) (human) (UniProt P27487); assay: cell-based or functional assay
Chain of Recombinant human DPP4 (R&D systems, #9168-SE) (human) (P27487 29-766 limits assumed): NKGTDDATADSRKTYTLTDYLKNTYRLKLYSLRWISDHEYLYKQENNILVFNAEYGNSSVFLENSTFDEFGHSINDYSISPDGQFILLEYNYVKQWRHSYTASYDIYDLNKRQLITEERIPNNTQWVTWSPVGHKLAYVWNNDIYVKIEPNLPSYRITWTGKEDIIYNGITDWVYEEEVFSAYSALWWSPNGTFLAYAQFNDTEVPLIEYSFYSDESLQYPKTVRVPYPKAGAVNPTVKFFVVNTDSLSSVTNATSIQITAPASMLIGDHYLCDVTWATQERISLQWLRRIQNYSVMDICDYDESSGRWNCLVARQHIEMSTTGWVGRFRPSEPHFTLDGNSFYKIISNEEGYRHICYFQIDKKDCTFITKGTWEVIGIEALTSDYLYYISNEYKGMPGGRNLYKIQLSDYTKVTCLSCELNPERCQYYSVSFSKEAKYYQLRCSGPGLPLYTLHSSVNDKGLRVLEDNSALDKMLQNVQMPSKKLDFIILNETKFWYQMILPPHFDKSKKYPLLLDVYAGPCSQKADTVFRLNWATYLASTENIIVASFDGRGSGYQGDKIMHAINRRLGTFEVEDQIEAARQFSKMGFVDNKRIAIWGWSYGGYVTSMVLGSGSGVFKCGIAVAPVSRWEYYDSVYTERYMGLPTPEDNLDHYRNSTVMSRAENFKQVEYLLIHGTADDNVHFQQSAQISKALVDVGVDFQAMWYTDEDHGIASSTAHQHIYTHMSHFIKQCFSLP

[4] = molecular target: recombinant human PREP (R&D systems, #4308-SE) (human) (UniProt P48147); assay: cell-based or functional assay
Chain of recombinant human PREP (R&D systems, #4308-SE) (human) (P48147 whole entry): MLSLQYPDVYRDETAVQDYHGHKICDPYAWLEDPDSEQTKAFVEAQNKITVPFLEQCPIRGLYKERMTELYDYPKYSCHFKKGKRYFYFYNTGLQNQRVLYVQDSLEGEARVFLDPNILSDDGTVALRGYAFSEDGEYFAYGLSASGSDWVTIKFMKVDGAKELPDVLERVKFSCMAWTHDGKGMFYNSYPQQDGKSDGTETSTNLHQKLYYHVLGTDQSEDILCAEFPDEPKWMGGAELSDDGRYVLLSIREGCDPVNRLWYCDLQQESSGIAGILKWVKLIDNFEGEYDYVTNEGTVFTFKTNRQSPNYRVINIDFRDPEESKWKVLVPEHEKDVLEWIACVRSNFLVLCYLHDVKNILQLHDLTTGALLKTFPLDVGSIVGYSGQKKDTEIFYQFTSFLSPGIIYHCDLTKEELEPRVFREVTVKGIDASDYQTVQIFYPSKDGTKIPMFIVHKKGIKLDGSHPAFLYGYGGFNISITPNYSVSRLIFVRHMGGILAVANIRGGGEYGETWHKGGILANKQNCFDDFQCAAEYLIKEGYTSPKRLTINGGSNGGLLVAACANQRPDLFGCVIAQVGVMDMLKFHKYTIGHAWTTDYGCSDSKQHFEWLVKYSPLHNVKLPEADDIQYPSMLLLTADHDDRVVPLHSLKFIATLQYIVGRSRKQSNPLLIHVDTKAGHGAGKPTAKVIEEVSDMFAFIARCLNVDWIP

[5] = molecular target: fibroblast activation protein (FAP) on FAP-expressing human WI-38 fibroblasts (human), Q12884; assay: competitive FACS, WI-38 cells, vs Cy5 tracer m3; D = pIC50 <=6.0; details: remark: other sources report otherwise

Binder	pIC50 Category (FACS) [1]	pIC50 Category (FACS) [2]	further results
B1	< 6 pIC50	–	–
B2	< 6 pIC50	–	–
B3	–	< 6 pIC50	–
B4	–	< 6 pIC50	–
B5	–	–	pIC50 (DPP4) [3]: < 6 pIC50; pIC50 (PREP) [4]: < 6 pIC50
B6	–	< 6 pIC50	–
B7	–	< 6 pIC50	–
B8	–	–	pIC50 Category (FACS) [5]: < 6 pIC50
B9	< 6 pIC50	–	–
B10	–	–	pIC50 Category (FACS) [5]: < 6 pIC50
B11	–	–	pIC50 (DPP4) [3]: < 6 pIC50; pIC50 (PREP) [4]: < 6 pIC50
B12	< 6 pIC50	–	–
B13	–	< 6 pIC50	–
B14	–	< 6 pIC50	–
B15	–	< 6 pIC50	–
B16	–	–	pIC50 (DPP4) [3]: < 6 pIC50; pIC50 (PREP) [4]: < 6 pIC50
B17	–	< 6 pIC50	–
B18	< 6 pIC50	–	–
B19	< 6 pIC50	–	–
B20	< 6 pIC50	–	–
B21	–	< 6 pIC50	–

Source: US20230212549A1, “COMPOUNDS COMPRISING A […] LIGAND AND USE THEREOF” (priority 2021, published 2023)
